For assay [1], the target named is ovine CD27 (OaCD27), full length, C-terminally V5 tagged, on transfected HEK293 cells (Ovis aries). Description: immunostaining of cells or tissue; HEK293 cells transfected with the V5-tagged receptor incubated with 10 μg of purified ligand for 15 min at 4 °C, then fixed; ligand detected with anti-ovine Fc antibody, receptor with anti-V5; confocal microscopy, pixel colocalisation in 25-40 cells.

Assay [2] deals with ovine OX40 (OaOX40), full length, C-terminally V5 tagged, on transfected HEK293 cells (Ovis aries). The assay is described as above.
Assay [3] has as its target ovine CD27 (OaCD27), full length, C-terminally V5 tagged, on transfected HEK293 cells (Ovis aries). Description: immunostaining of cells or tissue; HEK293 cells transfected with the V5-tagged receptor incubated with conditioned media from adenovirus-infected cells for 15 min, then fixed; ligand detected with anti-Fc antibody, receptor with anti-V5; confocal microscopy, pixel colocalisation in 25-40 cells.

In assay [4] the target is ovine OX40 (OaOX40), full length, C-terminally V5 tagged, on transfected HEK293 cells (Ovis aries). The description is as above.

The substance “purified recombinant ovine CD70 (rOaCD70), baculovirus-expressed: ovine IgG1 Fc - isoleucine zipper - predicted extracellular domain of ovine CD70 (Fc fusion)” registered a percentage of ligand sharing pixel localisation with its receptor in assay [1] of 72.8%.

Regarding “purified recombinant ovine OX40L (rOaOX40L), baculovirus-expressed: ovine IgG1 Fc - isoleucine zipper - predicted extracellular domain of ovine OX40L (Fc fusion)”, the percentage of ligand sharing pixel localisation with its receptor in assay [2] amounted to 59.3%.

For the substance “secreted rOaCD70 expressed from recombinant adenovirus Ad5-OaCD70 (same construct as the baculovirus protein) (Fc fusion)”, the percentage of ligand signal colocalising with its receptor in assay [3] amounted to 73.5%.

For the substance “secreted rOaOX40L expressed from recombinant adenovirus Ad5-OaOX40L (same construct as the baculovirus protein) (Fc fusion)”, in assay [4], the percentage of ligand signal colocalising with its receptor amounted to 60.4%.

The values above are taken from paper PMC7350415.
